Our source for the Kd values is paper PMC1635730, “Mesothelin-MUC16 binding is a high affinity, N-glycan dependent interaction that facilitates peritoneal metastasis of ovarian tumors” (Molecular Cancer, 2006).

The assay addresses T1, MUC16 expressed on the surface of the ovarian tumor cell line OVCAR-3 (human (endogenous in OVCAR-3), UniProt Q8WXI7 1-14507).
T1 construct: also called cell surface MUC16; MUC16 on OVCAR-3 cells; source: endogenous, on OVCAR-3 cells and the control subline #12
The assay is described as follows: flow cytometry on cells; OVCAR-3 cells with increasing amounts of meso-Fc for 1 h; mean fluorescence, non-linear regression (GraphPad Prism); apparent Kd. The note with it: one partner purified.

Values joined by “and” are separate entries in the source; they are usually repeats but may differ in a detail not shown here. Equal values may be shown once.

B1: recombinant mesothelin tagged with the Fc fragment of rabbit IgG (Fc fusion, human, UniProt Q13421 296-598, looked up)
chain: EVEKTACPSGKKAREIDESLIFYKKWELEACVDAALLATQMDRVNAIPFTYEQLDVLKHKLDELYPQGYPESVIQHLGYLFLKMSPEDIRKWNVTSLETLKALLEVNKGHEMSPQVATLIDRFVKGRGQLDKDTLDTLTAFYPGYLCSLSPEELSSVPPSSIWAVRPQDLDTCDPRQLDVLYPKARLAFQNMNGSEYFVKIQSFLGGAPTEDLKALSQQNVSMDLATFMKLRTDAVLPLTVAEVQKLLGPHVEGLKAEERHRPVRDWILRQRQDDLDTLGLGLQGGIPNGYLVLDLSMQEALS
notes: mesothelin, human, extracellular domain (the 40 kDa fragment of the 70 kDa precursor); GenBank AY743922; Modified pSecTag2 vector containing rabbit IgG Fc; Glycosylated (made in mammalian cells); also called meso-Fc; mesothelin-Fc; source: HEK 293T, transfected, harvested from the culture supernatant, purified (Hi-trap protein A column)
Turning to B1, the Kd was 5 nM and 5 to 10 nM.
